Measurements: patent publication US6858428B2, “Human and animal cell culture medium containing antithrombin III for suppressing cell death” (Agency of Industrial Science and Technology, priority 1999, dated 2005)
Entries after “also recorded” stand apart in the source; their conditions may differ.

Columns and labels:
[1] = system: osteoblast cell line ROS; assay: Survival of osteoblast cell line ROS in serum-free culture (viable cell count after 3 days); type: cell-based; settings: ROS osteoblasts
Protocol: Two mL cell suspension of osteoblast cell line ROS dispersed in trypsin (5×10^5 cells) were inoculated on six multi-well plates and pre-cultured by using Dulbecco's modified Eagle medium (DMEM) containing 10% fetal bovine serum, 1.6 g/L sodium hydrogencarbonate, 0.584 g/L L-glutamine, and 0.08 g/L kanamycin sulfate at 37° C. in a 5% CO2 gas phase. After one day, the broth was recovered, the cell surfaces were washed with serum-free medium, and the culture was continued for another 3 days with the addition of medium containing 10%, 0% fetal bovine serum, or 2 mL of fresh medium comprising 13 μg/mL antithrombin III added to media containing no fetal bovine serum (0%). The viable cell count was assayed after 3 days of culture.

[2] = system: hepatoma cell line HepG2; assay: Survival of hepatoma cell line HepG2 in serum-free culture (viable cell count after 3 days); type: cell-based; settings: for Survival rate: HepG2, DMEM without fetal bovine serum; for Effect in controlling cell death (in words): HepG2, serum-free medium
Protocol: Two mL cell suspension of hepatoma cell line HepG2 dispersed in trypsin (5×10^5 cells) were inoculated on six multi-well plates and pre-culture by using Dulbecco's modified Eagle medium (DMEM) containing 5% fetal bovine serum, 1.6 g/L sodium hydrogencarbonate, 0.584 g/L L-glutamine, and 0.08 g/L kanamycin sulfate at 37° C. in a 5% CO2 gas phase. […] The viable cell count was assayed after 3 days of culture.
(§1) The hepatoma cell line HepG2 was pre-cultured in the same manner as in Example 1. After 1 day, the broth was recovered, the cell surfaces were washed with serum-free medium, and the culture was continued for another 3 days with the addition of medium containing 5%, 0% fetal bovine serum, or 2 mL of fresh medium comprising antithrombin III added in concentrations ranging from 1 to 25 μg/mL to media containing no fetal bovine serum (0%). The viable cell count was assayed after 3 days of culture.
as §1, with “III or any of-various synthetic protease inhibitors given in Table 4” for “III”, “added” for “added in concentrations ranging from 1 to 25 μg/mL”

B1: Antithrombin III: Lyophilized antithrombin III purified from bovine serum (protein, UniProt P41361 33-465, looked up)
Antithrombin-III: HRSPVEDVCTAKPRDIPVNPMCIYRSSEKKATEGQGSEQKIPGATNRRVWELSKANSHFATAFYQHLADSKNNNDNIFLSPLSISTAFAMTKLGACNNTLKQLMEVFKFDTISEKTSDQIHFFFAKLNCRLYRKANKSSELVSANRLFGGKSITFNETYQDISEVVYGAKLQPLDFKGNAEQSRLTINQWISNKTEGRITDVIPPQAINEFTVLVLVNTIYFKGLWKSKFSPENTRKELFYKADGESCSVLMMYQESKFRYRRVAESTQVLELPFKGDDITMVLILPKLEKTLAKVEQELTPDMLQEWLDELTETLLVVHMPRFRIEDSFSVKEQLQDMGLEDLFSPEKSRLPGIVAEGRSDLYVSDAFHKAFLEVNEEGSEAAASTVISIAGRSLNSDRVTFKANRPILVLIREVALNTIIFMGRVANPCVD
With B1 the Survival rate ([1]; DMEM without fetal bovine serum, additive 13 μg/ml) was 85.5%, the “Effect in controlling cell death (in words)” value (from here on “Effect”) ([1]; serum-free medium, additive 13 μg/mL) was “considerably effective in controlling cell death” and the Survival rate ([2]; additive 1 μg/ml) was 68.6%. It also gave a Survival rate ([2]; additive 2.5 μg/ml) of 68.0%, a Survival rate ([2]; additive 5 μg/ml) of 74.1% and a Survival rate ([2]; additive 10 μg/ml) of 88.5%. The Survival rate ([2]; additive 17.5 μg/ml) was 93.3%, the Survival rate ([2]; additive 25 μg/ml) was 94.0% and the “Effect” value ([2]; additive 1 μg/mL) was “cell death was suppressed”. For the same molecule, the “Effect” value ([2]; additive 2.5 μg/mL (so in the source)) was “virtually the same survival rate as a serum concentration of 5%”, the “Effect” value ([2]; additive 25 μg/mL) was “highly effective in controlling cell death” and the “Effect” value ([2]; concentration not given) was “virtually the same survival rate as that of the medium with a 5% serum concentration; also recorded: considerably effective in controlling cell death”.

B2: EGF: growth factor reported as survival factor (protein, UniProt P01133 23-1207, looked up)
Pro-epidermal growth factor: PQHWSCPEGTLAGNGNSTCVGPAPFLIFSHGNSIFRIDTEGTNYEQLVVDAGVSVIMDFHYNEKRIYWVDLERQLLQRVFLNGSRQERVCNIEKNVSGMAINWINEEVIWSNQQEGIITVTDMKGNNSHILLSALKYPANVAVDPVERFIFWSSEVAGSLYRADLDGVGVKALLETSEKITAVSLDVLDKRLFWIQYNREGSNSLICSCDYDGGSVHISKHPTQHNLFAMSLFGDRIFYSTWKMKTIWIANKHTGKDMVRINLHSSFVPLGELKVVHPLAQPKAEDDTWEPEQKLCKLRKGNCSSTVCGQDLQSHLCMCAEGYALSRDRKYCEDVNECAFWNHGCTLGCKNTPGSYYCTCPVGFVLLPDGKRCHQLVSCPRNVSECSHDCVLTSEGPLCFCPEGSVLERDGKTCSGCSSPDNGGCSQLCVPLSPVSWECDCFPGYDLQLDEKSCAASGPQPFLLFANSQDIRHMHFDGTDYGTLLSQQMGMVYALDHDPVENKIYFAHTALKWIERANMDGSQRERLIEEGVDVPEGLAVDWIGRRFYWTDRGKSLIGRSDLNGKRSKIITKENISQPRGIAVHPMAKRLFWTDTGINPRIESSSLQGLGRLVIASSDLIWPSGITIDFLTDKLYWCDAKQSVIEMANLDGSKRRRLTQNDVGHPFAVAVFEDYVWFSDWAMPSVMRVNKRTGKDRVRLQGSMLKPSSLVVVHPLAKPGADPCLYQNGGCEHICKKRLGTAWCSCREGFMKASDGKTCLALDGHQLLAGGEVDLKNQVTPLDILSKTRVSEDNITESQHMLVAEIMVSDQDDCAPVGCSMYARCISEGEDATCQCLKGFAGDGKLCSDIDECEMGVPVCPPASSKCINTEGGYVCRCSEGYQGDGIHCLDIDECQLGEHSCGENASCTNTEGGYTCMCAGRLSEPGLICPDSTPPPHLREDDHHYSVRNSDSECPLSHDGYCLHDGVCMYIEALDKYACNCVVGYIGERCQYRDLKWWELRHAGHGQQQKVIVVAVCVVVLVMLLLLSLWGAHYYRTQKLLSKNPKNPYEESSRDVRSRRPADTEDGMSSCPQPWFVVIKEHQDLKNGGQPVAGEDGQAADGSMQPTSWRQEPQLCGMGTEQGCWIPVSSDKGSCPQVMERSFHMPSYGTQTLEGGVEKPHSLLSANPLWQQRALDPPHQMELTQ
modifications: Pro-epidermal growth factor
B2 was tested, and the Survival rate ([2]; additive 50 ng/ml) was 54.7%.
